Measured values taken from publication PMC8282004.

Molecular target: hACE2-K31N/K353H (human) (UniProt Q9BYF1)
Test: flow cytometry on cells

recombinant SARS-CoV-2 spike RBD-Fc protein (from UniProt P0DTC2 319-524) (Fc fusion)
binding efficiency (percentage of GFP+ cells that bound RBD-Fc): 7.86%
